Measured values published in PMC4868954.

The substances below were run against complement component C3b (human) (UniProt P01024) (assay: SPR).

First: complement receptor 1 CR1 CCP15–17 (residues 942–1,136) (from UniProt P17927 942-1136) (domain or fragment)
Second: decay-accelerating factor DAF CCP1–4 (domain or fragment)
The Kd of the first is 3.2-fold lower: 1900 nM for the first, 6100 nM for the second. The first binds more tightly here.

First: factor H FH CCP1–4 (domain or fragment)
Second: membrane-cofactor protein MCP CCP1–4 (residues 35–285), from E. coli (from UniProt P15529 35-285) (domain or fragment)
The Kd of the first is 21-fold higher: 7200 nM for the first, 350 nM for the second. The second binds more tightly here.

“smallpox inhibitor of complement enzymes, SPICE CCP1–4 (residues 19–263) (natural protein)” was tested, and the Kd was 1300 nM.
